We go through one molecule from patent US20230295308A1, “ANTAGONISTIC BIPARATOPIC ANTIBODIES THAT SPECIFICALLY BIND FIBROBLAST GROWTH FACTOR RECEPTOR 2 AND METHODS OF USING SAME” (The Broad Institute, Inc., priority 2020, published 2023).

One may read the Kd as the free concentration of one partner at which half of the binding sites on the other are occupied at equilibrium, for simple one-to-one binding. High values mean weaker binding, low ones tighter binding.

The test system of assay [1] is cells transformed with patient-derived FGFR2 having ECD activating deletion mutations. In words: patient-derived FGFR2 ECD mutation driven cell growth (FIG. 4F). The assay is classed as cell-based. The following applies: fold change from nonspecific IgG control. An excerpt: FIGS. 4A-4F present schematic diagrams, blots, images, tables and graphs showing that the FGFR2 extracellular domain is important for FGFR2 fusion driven cell growth and transformation and that patient-derived FGFR2 extracellular domain mutations increased transformation capacity. As also shown, some parental antibodies were effective in inhibiting ECD mutation driven cell growth. FIG. 4A is a graph showing that FGFR2-BICC1, FGFR2-AHCYL1, and FGFR2-PHGDH fusions grow faster compared to controls and respond to FGF ligands. The FGFR2 extracellular domain (ECD) contributes to the growth of transformed NIH3T3 cells expressing FGFR2 fusions. […] In addition, the ability of the antibodies described herein to inhibit the growth of the cells that overexpressed the ECD mutant FGFR2 fusions was assessed. […]
Expression of FGFR2-BICC1, FGFR2-AHCYL1, and FGFR2-PHGDH in NIH3T3 cells induced increased proliferation. […] By way of example, antibodies C, D, and E were effective in blocking the growth of cells having a patient-derived FGFR2 ECD activating mutation, as determined by assessing fold-increase or decrease from a nonspecific Ab (IgG) control (FIG. 4F); therefore, combinations of the binding regions of these antibodies in biparatopic antibodies may likely result in a synergistic blocking effect.

Assay [2] deals with FGFR2b alpha IIIb antigen (UniProt P21802). In words: SPR (Biacore), antibody on chip, FGFR2b alpha IIIb antigen. A general note: SPR reads the build-up and loss of mass on a sensor chip optically.
A further assay addresses T1, FGFR2IIIb.
T1 construct: also called purified FGFR2IIIb
T1 chain: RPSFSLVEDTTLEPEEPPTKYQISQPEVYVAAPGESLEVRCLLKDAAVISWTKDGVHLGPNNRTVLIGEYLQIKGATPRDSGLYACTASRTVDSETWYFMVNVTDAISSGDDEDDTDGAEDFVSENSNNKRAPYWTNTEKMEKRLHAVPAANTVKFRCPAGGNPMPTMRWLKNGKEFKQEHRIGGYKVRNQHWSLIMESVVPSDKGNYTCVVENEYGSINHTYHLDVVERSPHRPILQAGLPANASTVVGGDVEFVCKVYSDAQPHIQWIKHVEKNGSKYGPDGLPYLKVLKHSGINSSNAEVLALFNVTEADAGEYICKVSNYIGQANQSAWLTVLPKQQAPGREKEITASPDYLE
In words: row 'Kd (nM) (patent)', value quoted from the source patent; method: Radioimmunoassay-purified FGFR2IIIb.

The target in assay [3] is FGFR2 on SNU-16 gastric cancer cell line with FGFR2 amplification (UniProt P21802). In words: row 'Kd (nM) (FACS)'; FACS on SNU-16 cells.
The subject of assay [4] is BaF3 cells expressing wild-type FGFR2IIIb. In words: ligand-induced (FGF10) growth of BaF3 cells expressing FGFR2IIIb (FIG. 8). The assay is classed as cell-based. How it is done:
FIG. 8 is a schematic (described at FIG. 7A) and a graph showing the growth of BaF3 cells expressing FGFR2IIIb when treated with FGF10. Anti-FGFR2 antibodies blocked ligand-dependent stimulation of BaF3 cells expressing wild-type FGFR2b. FGFR2b is an isoform of FGFR2 that is predominantly expressed in cholangiocarcinoma.
Antibodies A-F were tested to determine whether they could inhibit the ligand-induced growth of BaF3 cells expressing FGFR2IIIb. Antibodies C, D, and E, which bind FGFR2 Ig-2 and Ig-3, were effective in blocking ligand-induced growth of BaF3 cells expressing wild-type FGFR2IIIb (FIG. 8). The effects of antibodies A-F were then tested on BaF3 cells expressing FGFR2-PHDGH fusions. […] Antibody F inhibited the FGFR2-PHDGH activating fusion in BaF3 cells (FIG. 9).

B1: 2B 1.3.12 (antibody, V domains shown)
VH: EVQLVESGGGLVQPGGSLRLSCAASGFPFTSTGISWVRQAPGKGLEWVGRTHLGDGSTNYADSVKGRFTISADTSKNTAYLQMNSLRAEDTAVYYCARTYGIYDTYDMYTEYVMDYWGQGTLVTVSS
VL: DIQMTQSPSSLSASVGDRVTITCRASQDVDTSLAWYKQKPGKAPKLLIYSASFLYSGVPSRFSGSGSGTDFTLTISSLQPEDFATYYCQQSTGHPQTFGQGTKVEIK
notes: the duobody scheme implies IgG1 with K409R or F405L; also called Antibody D; GE
In the case of B1, the “blocking growth of cells having a patient-derived FGFR2 ECD activating mutation” value in assay [1] is reported as “effective”. Also, the Kd came out at 0.99 nM in assay [2], 3 nM in the assay with FGFR2IIIb and 1.78 nM in assay [3]. In assay [4], the “blocking ligand-induced growth of BaF3 cells expressing wild-type FGFR2IIIb” value was “effective”.
